Patent US9309278

Molecular target: T1, Ac-FQPKKS(Ac)G-NH2 (alkylated acetyl-lysine analog of peptide 1)
T1 chain: FQPKXG

B1: human sirtuin 2 (SIRT2) enzyme (protein)
chain: MAEPDPSHPLETQAGKVQEAQDSDSDSEGGAAGGEADMDFLRNLFSQTLSLGSQKERLLDELTLEGVARYMQSERCRRVICLVGAGISTSAGIPDFRSPSTGLYDNLEKYHLPYPEAIFEISYFKKHPEPFFALAKELYPGQFKPTICHYFMRLLKDKGLLLRCYTQNIDTLERIAGLEQEDLVEAHGTFYTSHCVSASCRHEYPLSWMKEKIFSEVTPKCEDCQSLVKPDIVFFGESLPARFFSCMQSDFLKVDLLLVMGTSLQVQPFASLISKAPLSTPRLLINKEKAGQSDPFLGMIMGLGGGMDFDSKKAYRDVAWLGECDQGCLALAELLGWKKELEDLVRREHASIDAQSGAGVPNPSTSASPKKSPPPAKDEARTTEREKPQ
For B1, the deacetylation rate (SIRT2 assay, C18 analytical HPLC) (fold of the rate on the native peptide) was 0.33 and the “enzymatic deacetylation (SIRT2 assay, HPLC peak of the deacetylated product)” value was “the sLys(Ac) residue in the alkylated peptide 1 was susceptible to enzymatic deacetylation, albeit to a lesser degree, compared to its native counterpart”.
